# Results taken from PMC4351732 (Structure (London, England : 1993), 2015).
# B1: human NAPE-hydrolyzing phospholipase D (NAPE-PLD), truncated form Δ47 (D47 to F393) (enzyme, UniProt Q6IQ20 47-393, looked up)
# chain: DYRLEEDVTKSKKGKDGRFVNPWPTWKNPSIPNVLRWLIMEKDHSSVPSSKEELDKELPVLKPYFITNPEEAGVREAGLRVTWLGHATVMVEMDELIFLTDPIFSSRASPSQYMGPKRFRRSPCTISELPPIDAVLISHNHYDHLDYNSVIALNERFGNELRWFVPLGLLDWMQKCGCENVIELDWWEENCVPGHDKVTFVFTPSQHWCKRTLMDDNKVLWGSWSVLGPWNRFFFAGDTGYCPAFEEIGKRFGPFDLAAIPIGAYEPRWFMKYQHVDPEEAVRIHTDVQTKKSMAIHWGTFALANEHYLEPPVKLNEALERYGLNAEDFFVLKHGESRYLNNDDENF
# Molecular target: the molecule itself
# Assay: crystal structure
protein,measurement,value
B1,stoichiometry N,2
